US20140248291A1, “Modulation of Cellular Migration” (THE UAB RESEARCH FOUNDATION, priority 2011, published 2014)

Columns and labels:
D54-MG cells = assay: calcium imaging (Fura-2) of D54-MG cells after neuroligands; format: cell-based, human
Protocol: D54-MG cells were plated on 35-mm glass bottom dishes (MatTek, Corp., Ashland, Mass.) at ˜100×10^3 per dish and cultured for 2 days. pTRIPZ transfected cells, after stable selection, were plated at a density of ˜20×10^3 per dish and treated with […] doxycycline for 4 to 5 days to allow for sufficient protein knockdown. All cells were loaded in serum-free culture medium for 45 min with the ratiometric Ca^2+ dye Fura-2-acetoxymethylester (5 μmol/L; TEFLABS, Austin, Tex.) reconstituted in 20% wiv pluronic acid in DMSO (Invitrogen, Carlsbad, Calif.). Cells were rinsed with serum-free medium and allowed to rest in 7% serum-containing medium for 45 min at 37° C. The glass-bottom dishes were placed in an environmental chamber mounted on an inverted microscope. Cells were allowed to equilibrate in the chamber for 15 min before calcium images were collected. Following equilibration, recordings were obtained with an Olympus Disk Spinning Unit (DSU) fluorescent imaging microscope where cells were alternately excited at 340 and 380 nm using an x-cite illumination light source. Emitted light was collected at >520 nm. Images were digitized online using Slidebook 4.2 software (Intelligent Imaging Innovations, Denver, Colo.), and 340:380 nm ratios were obtained every 15 seconds. Following a 5 minute baseline recording every 15 seconds, BK was applied to the cells and imaging continued every 15 seconds for 30 or 60 minutes. In a subset of experiments, BK antagonists, HOE-140 and Bradyzide were applied to the cells. These experiments were repeated at least three times and data were pooled for statistical analysis.
Glioma cells respond to environmental clues as they invade the brain. It has been previously shown that the exposure of glioma cells to certain neuroligands induces increase in intracellular calcium concentrations. In this series of experiments, we investigated Ca^2+-responses in cultured D54-MG glioma cells, after addition of acetylcholine (ACh), ATP or BK. Glioma cells were loaded with the ratiometric Ca^2+-dye FURA2-AM, and imaged over 30 min.

D54-MG-GFP glioma cells = assay: Transwell migration assay; format: cell-based, human; conditions: 5 h, neuroligand at bottom of filter
Protocol: The day before the experiment was performed, ˜70% confluent dishes of cells were prepared. Transwell migration Fluoroblock cell culture inserts (BD Biosciences, San Jose, Calif.) with 8 μm pores were coated overnight with Vitronectin (BD Biosciences, San Jose, Calif.) at a concentration of 5 μg/ml in PBS. The following day, inserts were blocked with 1% fatty acid-free bovine serum albumin for 1 h. Inserts were then washed two times in PBS, and 400 μl of Migration Assay Buffer (MAB, 0.1% fatty acid-free bovine serum albumin in serum-free media) was added to the bottom of each well. Cells were rinsed once in PBS and were lifted off the dish by the addition of 0.5 mm EGTA. Cells were rinsed twice by centrifugation and resuspended in MAB and counted. Forty thousand cells were plated on the top of each filter and allowed to adhere for 30 min before drug was added. When BK+/−antagonists was added to the filters, it was added only to the bottom of the filter for chemotaxis. For migration assay, D54-EGFP MG cells were allowed to migrate for 5 hours, washed with PBS, fixed with 4% paraformaldehyde 15 minutes at room temperature, washed thrice and counterstained with DAPI for 5 minutes at room temperature. Invasion assay was performed similarly. Matrigel cell cultured inserts (BD Biosciences, San Jose, Calif.) with 8 μm pores were pretreated Vitronectin and blocked as described above. […] The number of nuclei that migrated through pores was counted. All counts per treatment were averaged and SE values were calculated. […]
To investigate the hypothesis that BK promotes glioma migration in vitro, we used Transwell migration assay which conveniently permit examination of cell migration across a membrane barrier with 8 μm pores towards vitronectin, a chemo-attractant extracellular matrix protein. This frequently used assay allows a quantitative study of drug effects with regards to drugs acting as motogens or as chemo-attractants. […]

B2R = B2R (Homo sapiens, UniProt P30411); conditions: cited from earlier work
B2R, sequence (P30411 whole entry, species assumed): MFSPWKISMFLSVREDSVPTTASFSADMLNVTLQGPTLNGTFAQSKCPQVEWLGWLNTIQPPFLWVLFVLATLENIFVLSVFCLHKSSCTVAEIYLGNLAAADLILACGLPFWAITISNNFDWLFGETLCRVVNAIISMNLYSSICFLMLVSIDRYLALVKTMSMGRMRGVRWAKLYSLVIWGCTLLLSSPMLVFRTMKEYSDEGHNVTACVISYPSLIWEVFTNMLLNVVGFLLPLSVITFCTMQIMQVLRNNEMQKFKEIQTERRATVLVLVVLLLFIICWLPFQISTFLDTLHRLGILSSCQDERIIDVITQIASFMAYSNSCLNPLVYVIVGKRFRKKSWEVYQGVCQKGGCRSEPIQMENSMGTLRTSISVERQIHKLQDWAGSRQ

[1] = biological target: bradykinin-2-receptor (B2R), human, as expressed on glioma cells (D54-MG, D54-MG-GFP, U251-MG) (human) (UniProt P30411); assay: cell-based or functional assay
bradykinin-2-receptor (B2R), human, as expressed on glioma cells (D54-MG, D54-MG-GFP, U251-MG) (human), sequence (P30411 whole entry): as the sequence (P30411 whole entry, species assumed) above

For `Nc1ncnc2c1ncn2[C@@H]1O[C@H](COP(=O)(O)OP(=O)(O)OP(=O)(O)O)[C@@H](O)[C@H]1O` [ATP], the “average peak of Ca2+ response” value (D54-MG cells; 100 μM ATP) was 0.45±0.05, the “cells responded / cells imaged” value (D54-MG cells; 100 μM ATP) was 87/146 and the “effect on D54-MG cell migration” value (D54-MG-GFP glioma cells) was “failed to alter glioma migration”.

In the case of `N=C(N)NCCC[C@@H](N)C(=O)N[C@@H](CCCNC(=N)N)C(=O)N1CCC[C@H]1C(=O)N1C[C@H](O)C[C@H]1C(=O)NCC(=O)N[C@@H](Cc1cccs1)C(=O)N[C@@H](CO)C(=O)N1Cc2ccccc2C[C@@H]1C(=O)N1[C@H](C(=O)N[C@@H](CCCNC(=N)N)C(=O)O)C[C@@H]2CCCC[C@@H]21` [Icatibant], the B2R antagonism (B2R) is given as “potent antagonist”.

In the case of `CC(=O)OCC[N+](C)(C)C` [ACh, acetylcholine], the “average peak of Ca2+ response” value (D54-MG cells; 50 μM ACh) is reported as 0.23±0.04 and the “cells responded (sustained rise in intracellular calcium)” value (D54-MG cells; 50 μM ACh, of 128 cells imaged) is reported as 116.

In the case of “HOE-140 (D-Arg-[Hyp3, Thi5, D-Tic7, Oic8]bradykinin) (peptide)”, the Ca2+-response of D54-MG cells to BK in the presence of HOE-140: average peak [1] is reported as 0.15, the Ca2+-response of D54-MG cells to BK in the presence of HOE-140: cells responded [1] is reported as 22 of 162 cells and the directionality of D54-MG cells in a BK concentration gradient in the presence of HOE-140 [1] is reported as 8 of 15 cells. The rat brain slice invasion with BK and HOE-140: cells migrated up to 15 µm [1] was 25.7%, the rat brain slice invasion with BK and HOE-140: cells migrated up to 20 µm [1] was 15.4% and the rat brain slice invasion with BK and HOE-140: cells migrated up to 25 µm [1] was 6.4%. It also gave a rat brain slice invasion with BK and HOE-140: cells remaining on the top of the slice [1] of 47.5%, a rat brain slice invasion with HOE-140 alone: cells migrated up to 15 µm [1] of 29.8% and a rat brain slice invasion with HOE-140 alone: cells migrated up to 20 µm [1] of 14.4%. For the same compound, the rat brain slice invasion with HOE-140 alone: cells migrated up to 25 µm [1] was 3.5% and the rat brain slice invasion with HOE-140 alone: cells on top of the slice [1] was 51.9%.
